The text below walks through data of patent US20240398942A1 (CHIA TAI TIANQING PHARMACEUTICAL GROUP, published 2024).

The term Kd denotes the constant that tells how readily two partners part at equilibrium. As a reminder, the koff is the rate constant with which the complex falls apart. As a reminder, the kon is the rate constant with which the complex forms. For orientation: IC50 means the concentration needed to halve the response being measured.

Where two headings read alike, the source gives them in different places.

The target in test [1] is T1, recombinant human CD40-his (Acro biosystems, Cat. No. CD0-H5228) (human, UniProt P25942 21-193).
T1 construct: Bought protein; also called human CD40-his protein; not shown: His tag
Description: SPR (Biacore T200), antibody captured, CD40-his as analyte, 1:1 fit. For orientation: SPR reads the build-up and loss of mass on a sensor chip optically.

Test [2] has as its target T2, cynomolgus monkey CD40-his protein (Acro biosystems, Cat. No. CD0-C52H6) (cynomolgus monkey, UniProt G7PG38 21-193).
T2 construct: Bought protein; not shown: His tag
The description is as above.

The target of test [3] is T1, recombinant human CD40-his (Acro …). The test is described as above. The text has this: (§1) Briefly, a goat anti-human IgG (GE Healthcare, Cat. No. BR100839, human antibody capture kit) was covalently linked to a CM5 chip (GE Healthcare, Cat. No. BR100530, carboxymethylated dextran-coated chip) via the primary amine group using a standard amine coupling kit supplied by Biacore (GE Healthcare, Pittsburgh, PA, USA). Unreacted portions on the biosensor surface were blocked with ethanolamine. Then, the anti-CD40 antibody of the present application and two benchmark antibodies (BM1 (dacetuzumab, Genentech Inc., also referred to CD40-BM1, prepared in-house; the heavy and light chain amino acid sequences are set forth in SEQ ID NOs: 40 and 41, respectively) and BM2 (selicrelumab, Abgenix Inc., also referred to CD40-BM2, prepared in-house; the heavy and light chain amino acid sequences are set forth in SEQ ID NOS: 42 and 43, respectively)) at a concentration of 66.67 nM were directed through the chip at a flow rate of 10 μL/min. Then, serially diluted recombinant human CD40-his (Acro biosystems, Cat. No. CD0-H5228, serially 2-fold diluted from 80 nM in HBS-EP⁺ buffer (supplied by Biacore)) or cynomolgus monkey CD40-his protein (Acro biosystems, Cat. No. CD0-C52H6, serially 2-fold diluted from 80 nM in HBS-EP⁺ buffer (supplied by Biacore)) was directed through the chip at a flow rate of 30 μL/min. The antigen-antibody binding kinetics was tracked for 2 min and the dissociation kinetics was tracked for 10 min. The association and dissociation curves were fitted to a 1:1 Langmuir binding model using BIAcore evaluation software. KD, Kₐ, and Kd values were determined.
The source holds these as a separate data set.

Test [4] addresses T2, cynomolgus monkey CD40-his protein …. The description is as above.
From the text: as §1
The source holds these as a separate data set.

In test [5] the target is T1, recombinant human CD40-his (Acro …). As to the kind of experiment: BLI (Octet RED 96), antibody captured on AHC sensor, human CD40-his as analyte, 1:1 fit. The protocol: After six days of culture in a shake flask, the cell supernatant containing the humanized antibodies huC1H1-V1 to huC1H1-V4 was harvested and the binding affinity of the antibodies to human CD40 was determined on an Octet system (Fortebio, Octet RED 96) according to the following procedures. Briefly, an anti-human IgG Fc capture (AHC) biosensor (from ForteBio) was pre-soaked in a 10 mM glycine solution (pH 1.5) for 3 s, and then soaked in a running buffer (PBST containing 0.5% w/v of BSA) for 3 s. The pre-soaking and soaking procedures were repeated 3 times. Then, the sensor was soaked in the cell supernatant containing the humanized anti-CD40 antibody, chimeric antibody C1H1 dissolved in HBS-EP⁺ buffer at a concentration of 5 μg/mL, or the benchmark dissolved in HBS-EP⁺ buffer at a concentration of 5 μg/mL for 120 s, and then soaked in the running buffer for 5 min. The new baseline was run in the running buffer for 180 s. The sensor was then soaked for 120 s in human CD40-his protein (Acro biosystems, Cat. No. CD0-H5228) 2-fold serially diluted from 40 nM in the running buffer and for 10 min in the running buffer […]. Finally, the sensor was pre-soaked in a 10 mM glycine solution (pH 1.5) for 3 s, and then soaked in the running buffer for 3 s. The pre-soaking and soaking procedures were repeated 3 times. The association and dissociation curves were fitted to a 1:1 Langmuir binding model using ForteBio Data Analysis 8.1.

The target of another test is T3, human CD40-Fc protein (human, biotinylated (sites not given) in the capture ELISA and the benchmark blocking ELISA; not biotinylated in the ligand blocking ELISA).
T3 construct: also called biotinylated human CD40-Fc
As to the kind of experiment: competitive ELISA (self-competition): BM2 (selicrelumab) coated as competitor, soluble BM2 titrated and pre-mixed with biotinylated human CD40-Fc 0.23 nM, streptavidin-HRP, OD(450-630). How it is done:
The ability of the anti-CD40 antibody of the present application to block the binding of the benchmark to human CD40 was determined by competitive ELISA. Briefly, BM2 antibody was immobilized on a 96-well micro plates at 1 μg/mL in PBS, 100 µL/well, and incubated overnight at 4° C. The next day, the plate was washed once with a washing buffer before a blocking buffer (PBST containing 5% w/v of skim milk) was added. The plate was then incubated at 37° C. for 2 h for blocking. During the blocking of the 96-well plate, the anti-CD40 antibody of the present application or the benchmark was serially 5-fold diluted from 66.7 nM with a biotinylated human CD40-Fc protein (amino acid residues 21-193 of SEQ ID NO: 30 linked to the N terminus of amino acid residues 99-330 of SEQ ID NO: 28, dissolved in PBST containing 2.5% w/v of skim milk at a concentration of 0.23 nM) and then incubated at room temperature for 40 min. After the plate was washed 4 times, the antibody/biotinylated human CD40-Fc mixture was added at 100 μL/well to the plate coated with BM2. The plate was incubated at 37° C. for 40 min and again washed 4 times with the washing buffer. […] The absorbance was read on a microplate reader using the dual wavelength mode (TMB detection wavelength: 450 nm, reference wavelength: 630 nm). […] Data were analyzed using Graphpad Prism software, and IC₅₀ values were obtained.

B1: mouse anti-CD40 monoclonal antibody C1H1 (antibody, V domains shown)
VH: EVKLVESGGGLVKPGASLKLSCAASGFTFSNYGISWVRQTSDKRLEWVASISSGGDNTYYPDNVKGRFTISRENAKNTLYLQMSSLKSEDTALYYCARAGEKAMDYWGQGTSVTVSS
VL: DIVLTQSPVTLSVTPGDSVSLSCRASQTINNNLHWYQQKSHESPRLLIKYASQSISGIPSRFSGSGSGTDFTLSINSVETEDFGIYFCQQFSSWPLTFGAGTKLELK
notes: Parent mouse antibody from a hybridoma; the mouse constant regions are not; also called Mouse C1H1
Consider B1, for which the equilibrium dissociation constant (Kd) is 0.428 nM in test [1], 0.377 nM in test [2], 0.684 nM in test [3] and 0.852 nM in test [4]. In addition, the koff in test [1] worked out at 0.000897 s⁻¹; in test [2], 0.000863 s⁻¹; in test [3] it was 0.00123 s⁻¹; in test [4], 0.00118 s⁻¹. Besides, the on-rate (kon) in test [1] was found to be 2.1e+06 M⁻¹ s⁻¹; in test [2], 2.29e+06 M⁻¹ s⁻¹; in test [3], 1.79e+06 M⁻¹ s⁻¹; in test [4], 1.39e+06 M⁻¹ s⁻¹.

B2: chimeric antibody C1H1 (antibody, human IgG1, kappa, V domains shown)
VH: B1 VH
VL: DIVLTQSPVTLSVTPGDSVSLSCRASQTINNNLHWYQQKSHESPRLLIKYASQSISGIPSRFSGSGSGTDFTLSINSVETEDFGIYFCQQFSSWPLTFGAGTKLELKR
notes: also called Chimeric C1H1
In the case of B2, in test [5], the dissociation constant Kd came out at 0.633 nM, the koff stood at 0.000929 s⁻¹ and the on-rate constant (kon) came to 1.47e+06 M⁻¹ s⁻¹.

B3: BM2 (selicrelumab) (antibody, human IgG2, kappa, V domains shown)
VH: not shown
VL: DIQMTQSPSSVSASVGDRVTITCRASQGIYSWLAWYQQKPGKAPNLLIYTASTLQSGVPSRFSGSGSGTDFTLTISSLQPEDFATYYCQQANIFPLTFGGGTKVEIKR
notes: Benchmark antibody, prepared in-house; also called CD40-BM2; benchmark
On to B3, for which the IC50 in the test with human CD40-Fc protein was found to be 0.529 nM. In test [5], the dissociation constant Kd was 1.12 nM, the koff was determined as 0.000979 s⁻¹ and the kon worked out at 874000 M⁻¹ s⁻¹.
